{"source": "patent US20220403363A1", "key": {"[1]": {"test_system": "gxpS_A3T3C/E4A4T4TE without SYNZIP (protein encoded by plasmid pJW83)"}, "[2]": {"test_system": "SYNZIP18-gxpS_A3T3C/E4A4T4TE (protein encoded by plasmid pJW76)"}, "[3]": {"test_system": "T1, SYNZIP18-xtpS_A3T3C/E4A4T4TE (protein encoded by plasmid pJW62)", "T1 sequence": "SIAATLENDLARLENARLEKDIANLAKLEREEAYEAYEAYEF"}, "[4]": {"target": "gxpS_A3T3C/E4A4T4TE without SYNZIP (protein encoded by plasmid pJW83)", "assay": "cell-based or functional assay"}, "[5]": {"test_system": "xtpS_A3T3C/E4A4T4TE without SYNZIP (protein encoded by plasmid pJW64)"}, "[6]": {"test_system": "GlbD second part (from the T domain) without SZ"}, "[7]": {"test_system": "GlbD second part (from the T domain) with SZ18"}, "[8]": {"test_system": "xtpS_T2-TE without SYNZIP (protein encoded by plasmid pNA12)"}, "[9]": {"test_system": "T2, SYNZIP18-xtpS_T2C3A3T3C/E4A4T4TE (protein encoded by plasmid pNA5)", "T2 sequence": "T1 sequence"}}, "data": [{"substance": "ambS_A1T1C/E2A2T2C3-SYNZIP17 (protein encoded by plasmid pJW91)", "values": [{"measurement": "production of peptide 9 by NRPS-3b (no N-terminal SZ) relative to NRPS-3a (HPLC-MS)", "setting": "[1]", "result": "peptide 9 to ˜18%"}, {"measurement": "production of peptides 7 and 8 by NRPS-3b (no N-terminal SZ) relative to NRPS-3a (HPLC-MS)", "setting": "[1]", "result": "7 and 8 were only produced to ˜50%"}, {"measurement": "peptide production by NRPS-3a in E. coli (HPLC-MS), peptides 7, 8 and 9", "setting": "[2]", "result": "The peptides 7, 8 and 9, which eluted at a retention time of 6 min, 7.1 min and 7 min, could be identified on the basis of their mass"}]}, {"substance": "xtpS_A1T1C/E2A2T2C3-GS(4)-SYNZIP17 (protein encoded by plasmid pNA10)", "values": [{"measurement": "increase in productivity for cyclic peptide 2 against the construct without linker (average over NRPS-15b, -15c, -15d)", "setting": "[3]", "result": "an average increase in productivity of ˜37% for cyclic 2 and ˜26% for linear peptide 1"}, {"measurement": "increase in productivity for linear peptide 1 against the construct without linker (average over NRPS-15b, -15c, -15d)", "setting": "[3]", "result": "an average increase in productivity of ˜37% for cyclic 2 and ˜26% for linear peptide 1"}, {"measurement": "production of cyclic product 2 by NRPS-15d (4 AS GS linker) (HPLC-MS)", "setting": "[3]", "result": "the cyclic product 2 with almost WT level was produced for all constructions with GS linker"}]}, {"substance": "szeS_C1A1T1C/E2A2T2C3-SYNZIP17 (protein encoded by plasmid pJW92)", "values": [{"measurement": "peptide production by NRPS-4a in E. coli (HPLC-MS), peptides 10 and 11", "setting": "[2]", "result": "Both the mass of 10 and the mass of 11 could be detected in the extracted ion chromatogram (EIC)"}]}, {"substance": "szeS_C1A1T1C/E2A2T2C3-SYNZIP17 (protein encoded by plasmid pJW92) (enzyme)", "values": [{"measurement": "decrease of peptides 10 and 11 in NRPS-4b (no N-terminal SZ) against NRPS-4a (HPLC-MS)", "setting": "[4]", "result": 80, "unit": "% decrease"}]}, {"substance": "xtpS_A1T1C/E2A2T2C3-SYNZIP19 (protein encoded by plasmid pNA1)", "values": [{"measurement": "peptide production by NRPS-16b (no N-terminal SZ) (HPLC-MS)", "setting": "[5]", "result": "showed no peptide production for control experiments NRPS-16b and NRPS-16d"}, {"measurement": "production of cyclic peptide 2 by NRPS-16 (C-A split, SZ19/18) relative to WT XtpS (HPLC-MS)", "setting": "[3]", "result": "13% (NRPS-16)"}, {"measurement": "production of linear peptide 1 by NRPS-16 (HPLC-MS)", "setting": "[3]", "result": "NRPS-16 showed no production of 1"}]}, {"substance": "xtpS_A1T1C/E2A2T2C3-GS(10)-SYNZIP17 (protein encoded by plasmid pNA8)", "values": [{"measurement": "increase in productivity for cyclic peptide 2 against the construct without linker (average over NRPS-15b, -15c, -15d)", "setting": "[3]", "result": "an average increase in productivity of ˜37% for cyclic 2 and ˜26% for linear peptide 1"}, {"measurement": "increase in productivity for linear peptide 1 against the construct without linker (average over NRPS-15b, -15c, -15d)", "setting": "[3]", "result": "an average increase in productivity of ˜37% for cyclic 2 and ˜26% for linear peptide 1"}, {"measurement": "production of cyclic product 2 by NRPS-15b (10 AS GS linker) (HPLC-MS)", "setting": "[3]", "result": "the cyclic product 2 with almost WT level was produced for all constructions with GS linker"}]}, {"substance": "GlbD first part (up to the A domain) without SZ", "values": [{"measurement": "glidobactin A production, negative control without both SZs", "setting": "[6]", "result": "In the negative controls without in each case one or both SZs, there is virtually no glidobactin A production"}, {"measurement": "glidobactin A production, negative control without one SZ", "setting": "[7]", "result": "In the negative controls without in each case one or both SZs, there is virtually no glidobactin A production"}]}, {"substance": "xtpS_A1T1C/E2A2T2C3-GS(8)-SYNZIP17 (protein encoded by plasmid pNA9)", "values": [{"measurement": "increase in productivity for cyclic peptide 2 against the construct without linker (average over NRPS-15b, -15c, -15d)", "setting": "[3]", "result": "an average increase in productivity of ˜37% for cyclic 2 and ˜26% for linear peptide 1"}, {"measurement": "increase in productivity for linear peptide 1 against the construct without linker (average over NRPS-15b, -15c, -15d)", "setting": "[3]", "result": "an average increase in productivity of ˜37% for cyclic 2 and ˜26% for linear peptide 1"}, {"measurement": "production of cyclic product 2 by NRPS-15c (8 AS GS linker) (HPLC-MS)", "setting": "[3]", "result": "the cyclic product 2 with almost WT level was produced for all constructions with GS linker"}]}, {"substance": "xtpS_A1T1C/E2A2T2C3 without SYNZIP (protein encoded by plasmid pJW63)", "values": [{"measurement": "peptide production by NRPS-16d (no SZs) (HPLC-MS)", "setting": "[5]", "result": "showed no peptide production for control experiments NRPS-16b and NRPS-16d"}, {"measurement": "decrease in production of cyclic peptide 2 by NRPS-16c in relation to NRPS-16a (both SZs)", "setting": "[3]", "result": "control NRPS-16c shows a decrease in the production of cyclic peptide 2 by 80%"}, {"measurement": "production of peptide 2 by NRPS-16c (no C-terminal SZ), % of WT level (HPLC-MS)", "setting": "[3]", "result": "NRPS-16c showed only a very low production of 2 with 3.2% of the WT level"}]}, {"substance": "GlbD first part (up to the A domain) with SZ17", "values": [{"measurement": "glidobactin A production, negative control without one SZ", "setting": "[6]", "result": "In the negative controls without in each case one or both SZs, there is virtually no glidobactin A production"}, {"measurement": "glidobactin A production by the PKS/NRPS hybrid with divided GlbD", "setting": "[7]", "result": "leads to a complete synthesis of the glidobactin peptide"}]}, {"substance": "xtpS_A1T1C/E2A2 without SYNZIP (protein encoded by plasmid pNA11)", "values": [{"measurement": "decrease in productivity of NRPS-14d compared to NRPS-14a (told of the controls overall)", "setting": "[8]", "result": "Overall, the controls showed a decrease in productivity of 90% compared to NRPS-14a"}, {"measurement": "production of peptides 2 and 1 by NRPS-14d (no SZs), % of WT level (HPLC-MS)", "setting": "[8]", "result": "showed a very low production of the cyclic product 2 and absolutely no production of the linear peptide 1 at ˜3-10% of the WT level"}, {"measurement": "decrease in productivity of NRPS-14c compared to NRPS-14a (told of the controls overall)", "setting": "[9]", "result": "Overall, the controls showed a decrease in productivity of 90% compared to NRPS-14a"}, {"measurement": "production of peptides 2 and 1 by NRPS-14c (no C-terminal SZ), % of WT level (HPLC-MS)", "setting": "[9]", "result": "showed a very low production of the cyclic product 2 and absolutely no production of the linear peptide 1 at ˜3-10% of the WT level"}]}, {"substance": "xldS_C1A1T1C/E2A2T2C3-SYNZIP17 (protein encoded by plasmid pJW93)", "values": [{"measurement": "peptide production by NRPS-5b (negative control without SZ18) against NRPS-5a (HPLC-MS)", "setting": "[1]", "result": "the negative control (NRPS-5b) showed no significant difference in peptide production from the NRPS-5a construct"}, {"measurement": "peptide production by NRPS-5a in E. coli (HPLC-MS)", "setting": "[2]", "result": "showed the production of most expected derivatives"}]}]}
